Our source for the abundance fitness values is the Human Domainome abundance scans (Beltran et al. 2025).

The chains are these.
B1: Tumor protein 63, residues 545 to 610; numbered along this chain, Q9H3D4 (parent)
chain: TDCSIVSFLARLGCSSCLDYFTTQGLTTIYQIEHYSMDDLASLKIPEQFRHAIWKGILDHRQLHEF

± gives the uncertainty stated by the source.

Variants of B1 are the subject of this data set. The data set can be described thus: abundance fitness (aPCA) (normalised: wild type 0, dead -1); higher = more abundant; growth selection in yeast, the domain comes from the species named. As to conditions: Homo sapiens.
For the variant TDCSIVSFLARLGCSSCLDYFTTQGYTTIYQIEHYSMDDLASLKIPEQFRHAIWKGILDHRQLHEF [L26Y], the abundance fitness is -0.149 ± 0.05.

As to TDCSIVSFLARLGCSSCLDYFTTQGVTTIYQIEHYSMDDLASLKIPEQFRHAIWKGILDHRQLHEF [L26V], the abundance fitness is -0.054 ± 0.025.

On to TDCSIVSFLARLGCSSCLDYFTTQGMTTIYQIEHYSMDDLASLKIPEQFRHAIWKGILDHRQLHEF [L26M], for which the abundance fitness is -0.112 ± 0.032.

Regarding TDCSIVSFLARLGCSSCLDYFTTQGRTTIYQIEHYSMDDLASLKIPEQFRHAIWKGILDHRQLHEF [L26R], the abundance fitness was -0.436 ± 0.022.

With TDCSIVSFLARLGCSSCLDYFTTQGFTTIYQIEHYSMDDLASLKIPEQFRHAIWKGILDHRQLHEF [L26F], the abundance fitness is -0.106 ± 0.055.

For the variant TDCSIVSFLARLGCSSCLDYFTTQGWTTIYQIEHYSMDDLASLKIPEQFRHAIWKGILDHRQLHEF [L26W], the abundance fitness was -0.435 ± 0.03.

In the case of TDCSIVSFLARLGCSSCLDYFTTQGNTTIYQIEHYSMDDLASLKIPEQFRHAIWKGILDHRQLHEF [L26N], the abundance fitness is -0.414 ± 0.041.

As for TDCSIVSFLARLGCSSCLDYFTTQGITTIYQIEHYSMDDLASLKIPEQFRHAIWKGILDHRQLHEF [L26I], the abundance fitness was -0.014 ± 0.028.

As to TDCSIVSFLARLGCSSCLDYFTTQGHTTIYQIEHYSMDDLASLKIPEQFRHAIWKGILDHRQLHEF [L26H], the abundance fitness was -0.225 ± 0.04.

As for TDCSIVSFLARLGCSSCLDYFTTQGGTTIYQIEHYSMDDLASLKIPEQFRHAIWKGILDHRQLHEF [L26G], the abundance fitness is -0.935 ± 0.064.

As to TDCSIVSFLARLGCSSCLDYFTTQGQTTIYQIEHYSMDDLASLKIPEQFRHAIWKGILDHRQLHEF [L26Q], the abundance fitness was -0.345 ± 0.041.

Consider TDCSIVSFLARLGCSSCLDYFTTQGATTIYQIEHYSMDDLASLKIPEQFRHAIWKGILDHRQLHEF [L26A], for which the abundance fitness was -0.271 ± 0.029.

With TDCSIVSFLARLGCSSCLDYFTTQGCTTIYQIEHYSMDDLASLKIPEQFRHAIWKGILDHRQLHEF [L26C], the abundance fitness was -0.174 ± 0.025.

As for TDCSIVSFLARLGCSSCLDYFTTQGDTTIYQIEHYSMDDLASLKIPEQFRHAIWKGILDHRQLHEF [L26D], the abundance fitness is -0.552 ± 0.054.

With TDCSIVSFLARLGCSSCLDYFTTQGTTTIYQIEHYSMDDLASLKIPEQFRHAIWKGILDHRQLHEF [L26T], the abundance fitness was -0.272 ± 0.025.

TDCSIVSFLARLGCSSCLDYFTTQGPTTIYQIEHYSMDDLASLKIPEQFRHAIWKGILDHRQLHEF [L26P]: the abundance fitness is -0.692 ± 0.065.

TDCSIVSFLARLGCSSCLDYFTTQGLTTIFQIEHYSMDDLASLKIPEQFRHAIWKGILDHRQLHEF [Y30F]: the abundance fitness is -0.112 ± 0.086.

For the variant TDCSIVSFLARLGCSSCLDYFTTQGLTTIEQIEHYSMDDLASLKIPEQFRHAIWKGILDHRQLHEF [Y30E], the abundance fitness was -0.016 ± 0.031.

Take TDCSIVSFLARLGCSSCLDYFTTQGLTTIIQIEHYSMDDLASLKIPEQFRHAIWKGILDHRQLHEF [Y30I]: the abundance fitness was -0.049 ± 0.043.

Turning to TDCSIVSFLARLGCSSCLDYFTTQGLTTIGQIEHYSMDDLASLKIPEQFRHAIWKGILDHRQLHEF [Y30G], the abundance fitness was determined as 0 ± 0.027.

With TDCSIVSFLARLGCSSCLDYFTTQGLTTIHQIEHYSMDDLASLKIPEQFRHAIWKGILDHRQLHEF [Y30H], the abundance fitness amounted to 0.057 ± 0.044.

As for TDCSIVSFLARLGCSSCLDYFTTQGLTTILQIEHYSMDDLASLKIPEQFRHAIWKGILDHRQLHEF [Y30L], the abundance fitness is -0.044 ± 0.02.

As to TDCSIVSFLARLGCSSCLDYFTTQGLTTIKQIEHYSMDDLASLKIPEQFRHAIWKGILDHRQLHEF [Y30K], the abundance fitness stood at 0.001 ± 0.019.

For the variant TDCSIVSFLARLGCSSCLDYFTTQGLTTIDQIEHYSMDDLASLKIPEQFRHAIWKGILDHRQLHEF [Y30D], the abundance fitness came to 0.009 ± 0.044.

TDCSIVSFLARLGCSSCLDYFTTQGLTTIMQIEHYSMDDLASLKIPEQFRHAIWKGILDHRQLHEF [Y30M]: the abundance fitness is -0.025 ± 0.043.

Turning to TDCSIVSFLARLGCSSCLDYFTTQGLTTICQIEHYSMDDLASLKIPEQFRHAIWKGILDHRQLHEF [Y30C], the abundance fitness amounted to 0.005 ± 0.075.

For TDCSIVSFLARLGCSSCLDYFTTQWLTTIYQIEHYSMDDLASLKIPEQFRHAIWKGILDHRQLHEF [G25W], the abundance fitness was -0.733 ± 0.06.

With TDCSIVSFLARLGCSSCLDYFTTQYLTTIYQIEHYSMDDLASLKIPEQFRHAIWKGILDHRQLHEF [G25Y], the abundance fitness was -0.349 ± 0.04.

As to TDCSIVSFLARLGCSSCLDYFTTQGLTYIYQIEHYSMDDLASLKIPEQFRHAIWKGILDHRQLHEF [T28Y], the abundance fitness was -0.056 ± 0.029.

Take TDCSIVSFLARLGCSSCLDYFTTQGLTNIYQIEHYSMDDLASLKIPEQFRHAIWKGILDHRQLHEF [T28N]: the abundance fitness was -0.087 ± 0.04.

As to TDCSIVSFLARLGCSSCLDYFTTQGLTFIYQIEHYSMDDLASLKIPEQFRHAIWKGILDHRQLHEF [T28F], the abundance fitness is -0.063 ± 0.038.

As to TDCSIVSFLARLGCSSCLDYFTTQGLTIIYQIEHYSMDDLASLKIPEQFRHAIWKGILDHRQLHEF [T28I], the abundance fitness was -0.192 ± 0.027.

As for TDCSIVSFLARLGCSSCLDYFTTQGLTPIYQIEHYSMDDLASLKIPEQFRHAIWKGILDHRQLHEF [T28P], the abundance fitness is -0.82 ± 0.055.

TDCSIVSFLARLGCSSCLDYFTTQGLTRIYQIEHYSMDDLASLKIPEQFRHAIWKGILDHRQLHEF [T28R]: the abundance fitness was -0.051 ± 0.021.

As for TDCSIVSFLARLGCSSCLDYFTTQGLTVIYQIEHYSMDDLASLKIPEQFRHAIWKGILDHRQLHEF [T28V], the abundance fitness was -0.1 ± 0.023.

Turning to TDCSIVSFLARLGCSSCLDYFTTQGLTHIYQIEHYSMDDLASLKIPEQFRHAIWKGILDHRQLHEF [T28H], the abundance fitness was -0.056 ± 0.042.

For TDCSIVSFLARLGCSSCLDYFTTQGLTLIYQIEHYSMDDLASLKIPEQFRHAIWKGILDHRQLHEF [T28L], the abundance fitness is -0.084 ± 0.019.

For the variant TDCSIVSFLARLGCSSCLDYFTTQGLTKIYQIEHYSMDDLASLKIPEQFRHAIWKGILDHRQLHEF [T28K], the abundance fitness was -0.028 ± 0.033.

In the case of TDCSIVSFLARLGCSSCLDYFTTQGLTWIYQIEHYSMDDLASLKIPEQFRHAIWKGILDHRQLHEF [T28W], the abundance fitness was -0.04 ± 0.03.

TDCSIVSFLARLGCSSCLDYFTTQGLTGIYQIEHYSMDDLASLKIPEQFRHAIWKGILDHRQLHEF [T28G]: the abundance fitness was -0.069 ± 0.024.

As to TDCSIVSFLARLGCSSCLDYFTTQGLTMIYQIEHYSMDDLASLKIPEQFRHAIWKGILDHRQLHEF [T28M], the abundance fitness is -0.038 ± 0.033.
